From PMC4896396 (Journal of the American Chemical Society, 2016)

Target: the molecule itself
Assay: SEC-SAXS

B1: full-length rat phenylalanine hydroxylase (wt-PheH) (enzyme, UniProt P04176 1-453, looked up)
chain: MAAVVLENGVLSRKLSDFGQETSYIEDNSNQNGAISLIFSLKEEVGALAKVLRLFEENDINLTHIESRPSRLNKDEYEFFTYLDKRTKPVLGSIIKSLRNDIGATVHELSRDKEKNTVPWFPRTIQELDRFANQILSYGAELDADHPGFKDPVYRARRKQFADIAYNYRHGQPIPRVEYTEEEKQTWGTVFRTLKALYKTHACYEHNHIFPLLEKYCGFREDNIPQLEDVSQFLQTCTGFRLRPVAGLLSSRDFLGGLAFRVFHCTQYIRHGSKPMYTPEPDICHELLGHVPLFSDRSFAQFSQEIGLASLGAPDEYIEKLATIYWFTVEFGLCKEGDSIKAYGAGLLSSFGELQYCLSDKPKLLPLELEKTACQEYSVTEFQPLYYVAESFSDAKEKVRTFAATIPRPFSVRYDPYTQRVEVLDNTQQLKILADSINSEVGILCNALQKIKS
- stoichiometry N: 4
